Consider three molecules from article PMC4150532.

Data set [1] deals with T1, GST-Elp1 CTD (Saccharomyces cerevisiae) (UniProt Q06706).
T1 sequence: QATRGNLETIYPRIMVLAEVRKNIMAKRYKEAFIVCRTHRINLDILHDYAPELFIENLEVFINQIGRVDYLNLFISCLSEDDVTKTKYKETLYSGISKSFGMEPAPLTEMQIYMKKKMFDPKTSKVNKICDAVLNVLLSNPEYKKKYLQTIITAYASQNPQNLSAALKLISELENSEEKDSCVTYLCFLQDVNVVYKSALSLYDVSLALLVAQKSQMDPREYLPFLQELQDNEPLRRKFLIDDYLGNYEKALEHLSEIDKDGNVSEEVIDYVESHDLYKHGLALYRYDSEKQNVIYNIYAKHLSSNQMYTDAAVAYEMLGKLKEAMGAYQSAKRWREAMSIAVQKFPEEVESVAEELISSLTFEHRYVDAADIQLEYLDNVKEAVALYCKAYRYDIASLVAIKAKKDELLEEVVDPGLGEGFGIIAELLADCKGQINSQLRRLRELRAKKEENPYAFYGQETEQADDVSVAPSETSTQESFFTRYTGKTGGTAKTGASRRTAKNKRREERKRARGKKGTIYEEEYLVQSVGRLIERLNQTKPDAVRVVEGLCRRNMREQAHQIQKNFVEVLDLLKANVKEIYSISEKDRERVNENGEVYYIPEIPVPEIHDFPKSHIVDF
Briefly: EMSA. The settings on record: native tRNA modifications; 5' phosphate removed, then 5' 32P-labelled; 20 mM Tris-HCl pH 7.5, 150 mM NaCl, 2 mM MgCl2, 8% glycerol, 10 U Ribolock; 45 min at room temperature; 1.5% native agarose gel in 0.5x TBE.

Data set [2] deals with Elp1–KR9A–GFP (GFP-tagged Elp1 basic region mutant, nine basic residues to alanine) (S. cerevisiae) (UniProt Q06706). Briefly: co-IP; GFP–Trap beads precipitate the GFP-tagged protein from yeast lysate; HA-tagged partners found by anti-HA blot and measured by densitometry; lysis buffer 50 mM HEPES-KOH pH 7.5, 150 mM NaCl, 2 mM MgCl2, 0.1% Triton X-100; 4°C.

The molecule total yeast tRNA (Sigma R9001) returned a Kd in data set [1] of 0.55 µM.

B1: Elp5-3HA (HA-tagged Elp5 subunit of Elongator) (natural protein)
chain: MASSSHNPVILLKRILSLTESSPFILCLDSIAQTSYKLIQEFVHQSKSKGNEYPIVYISFETVNKPSYCTQFIDATQMDFVHLVKQIISYLPAATATQAKKHMVIIDSLNYISTEYITRFLSEIASPHCTMVATYHKDIKDENRTVIPDWNNNYPDKLTLLQFMATTIVDIDVVLTGTLDTEEVSELLNEFRIPRGLNNDIFQLRLVNKRKSGRSLEYDFIVNSNTHEYELLSTTKQEEESSSNGLETPEMLQGLTTFNLGTSNKQKLAKDQVALPFLEAQSFGQGGAIVYEYEKDDDYDEEDPYEDPF
Regarding B1, the percent less co-precipitated than with wild-type Elp1–GFP (densitometry) in data set [2] stood at 30%.

B2: Kti12-3HA (HA-tagged Elongator accessory protein Kti12) (natural protein)
chain: MPLVLFTGYPCSGKTTLAKHLVQLLQSKIDATPSLSKYSITYHSDESLGIKHSDYITSQDERKLRSEIISAVKRDLSKNKIVIVDSLNYIKGFRYQLHCEVKNLSTTFCVIQTLCPPETIFEWNKTSNPNPWEPELLNQLIQRYEEPNSSNRWDSPLFAILTPQDNITDYIDDICKVVFQTSKSAKNSGHNDPLSKGLQKPNSATVLKPASQSNFIQVLDIETSKIIKTIMNHIKSLTSIGGVSNGTRVIVSEGITDINDDGCFFVDLPIGNVVTLAQLQRLKRQFINFNKLRDIDQDRIGPLFADYLNKNLN
In turn, B2 came in with a percent less co-precipitated than with wild-type Elp1–GFP (densitometry) in data set [2] of 40%.
